Experiments:
[1] = test system: feline IL-31; assay: Competition binding assessment using Biacore, feline IL-31 surface; details: sequential addition of 15H05 and 11E12, Biacore
Method: To further characterize the IL-31 epitopes bound by mAbs 15H05 and 11 E12, blocking experiments were performed using biacore where the surface containing the IL-31 protein was generated followed by sequential addition of antibodies. FIGS. 7A and 7B show the relative binding of each antibody to IL-31 following capture of 11E12 or 15H05. The columns labeled HBS-EP (assay buffer) indicate the maximum signal obtained from each antibody binding to the IL-31 surface alone without competition. […] The sensograms related to FIG. 7A show the disassociation kinetics of both antibodies are very slow on this newly formed biacore surface therefore no additional occupation of binding sites can occur with addition of the same antibody (data not shown).
Binding of additional antibody in the presence of the same antibody is a result of the increased off rate due to the poorer quality of the surface used. Increased off rates can be seen and compared to the KD values from newly formed feline IL-31 surfaces in FIG. 2.

[2] = test system: feline IL-31 15H05 mutant; assay: Indirect ELISA, binding to feline IL-31 15H05 mutant; details: compared with wildtype
feline IL-31 15H05 mutant, sequence (as listed by the source, change not shown): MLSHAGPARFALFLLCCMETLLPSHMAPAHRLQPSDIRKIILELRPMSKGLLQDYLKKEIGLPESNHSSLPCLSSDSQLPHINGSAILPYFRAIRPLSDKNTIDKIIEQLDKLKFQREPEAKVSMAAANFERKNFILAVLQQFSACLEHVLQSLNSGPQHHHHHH
Method in brief: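 Wildtype or 15H05-epitope-mutant feline IL-31 coated directly onto plates as capture antigen (50 ng/well). Antibodies diluted in PBST, bound antibody detected with HRP-labelled secondary and TMB for 10 min at RT. Reaction stopped with 0.1 N HCl, then OD read at 450 nm.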

feline IL-31, sequence (as listed by the source): as the sequence (as listed by the source, change not shown) above, with A126P, A128D counted along it

B1: 15H05: mouse anti IL-31 monoclonal antibody, VH SEQ ID NO: 67, VL SEQ ID NO: 69 (antibody, listed as Mus musculus, V domains shown)
VH: QVQLQQSAAELARPGASVKMSCKTSGYTFTSYTIHWIKQRPGQGLEWIGNINPTSGYTENNQRFKDKTTLTVDRSSNTAYLQLHSLTSEDSAVYFCARWGFKYDGEWSFDVWGAGTTVTVSS
VL: DIQMNQSPSSLSASLGDTITVTCRASQGISIWLSWYQQKPGNIPKVLINKASNLHIGVPPRFSGSGSGTHFTLTITSLQPEDIATYYCLQSQTYPLTFGGGTKLEIN
- competition binding on feline IL-31 [1]: no overlap in the epitope recognized
- binding to feline IL-31 15H05 mutant (ELISA) [2]: complete loss

Reference: US11433139B2, “Peptide vaccines against interleukin-31” (Zoetis Services LLC, priority 2018, dated 2022)
